US20210292393A1 (published 2021)
Where two headings read alike, the source gives them in different places.

Assays:
Assay in all cases: BLI
[1] = biological target: T1, SARS-CoV-2 spike ectodomain (UniProt P0DTC2 14-1213)
[2] = biological target: T1, SARS-CoV-2 spike ectodomain; remark: listed apart in the source
[3] = biological target: T1, SARS-CoV-2 spike ectodomain; remark: listed apart in the source

B1: Fab 483 (Fab, V domains shown)
VH: QVQLQESGPGLVKPSETLSLTCTVSGGSISSYYWSWIRQPPGKGLEWIGYIYYSGSTNYNPSLKSRVTISVDTSKNQFSLKLSSVTAADTAVYYCARAPEEKSSEIGELVGWGWFDPWGQGTLVTVSS
VL: not shown
[1]
  Kd: 23.1 nM

B2: Fab 419 (Fab, V domains shown)
VH: QVQLVQSGAEVKKPGASVKVSCKASGYTFTSYYMHWVRQAPGQGLEWMGIINPSGGSTSYAQKFQGRVTMTRDTSTSTVYMELSSLRSEDTAVYYCARDWTQSSGYDYYYGLDVWGQGTTVTVSS
VL: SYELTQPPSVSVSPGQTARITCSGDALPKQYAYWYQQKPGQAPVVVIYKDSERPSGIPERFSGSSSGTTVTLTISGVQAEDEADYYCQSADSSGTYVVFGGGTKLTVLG
[2]
  Kd: 365 nM

B3: Fab 494 (Fab, V domains shown)
VH: EVQLVESGGGLVQPGGSLRLSCAASGFTVSSNYMSWVRQAPGKGLEWVSVIYSGGSTFYADSVKGRFTISRDNSKNTLYLQMNSLRAEDTAVYYCARDSGDQLLDYWGQGTLVTVSS
VL: DIQLTQSPSFLSASVGDRVTITCRASQGISSYLAWYQQKPGKAPKLLIYAASTLQSGVPSRFSGSGSGTEFTLTISSLQPEDFATYYCQQLNSYPPFTFGPGTKVDIKR
[3]
  Kd: 5.9 nM
